Columns and labels:
[1] = molecular target: T1, human IL-36R overexpressed on 293T-hIL36R-NFκB cells (human, UniProt Q9HB29 20-575); experiment: cell-based or functional assay
T1 sequence: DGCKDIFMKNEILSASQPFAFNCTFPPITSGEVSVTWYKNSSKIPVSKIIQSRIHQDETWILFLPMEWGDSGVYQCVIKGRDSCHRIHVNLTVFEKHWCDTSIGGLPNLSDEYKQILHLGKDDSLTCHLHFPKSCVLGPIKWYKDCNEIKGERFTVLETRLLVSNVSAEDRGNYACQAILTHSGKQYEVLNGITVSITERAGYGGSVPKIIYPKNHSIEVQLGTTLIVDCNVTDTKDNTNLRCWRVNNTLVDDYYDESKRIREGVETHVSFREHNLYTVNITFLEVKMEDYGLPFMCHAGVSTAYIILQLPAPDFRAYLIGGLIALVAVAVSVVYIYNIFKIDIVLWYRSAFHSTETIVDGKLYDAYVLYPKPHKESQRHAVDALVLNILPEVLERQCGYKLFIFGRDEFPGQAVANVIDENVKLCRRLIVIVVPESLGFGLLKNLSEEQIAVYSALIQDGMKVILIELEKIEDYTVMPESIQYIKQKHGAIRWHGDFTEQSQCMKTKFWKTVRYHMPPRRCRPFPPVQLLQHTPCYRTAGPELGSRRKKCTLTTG

[2] = molecular target: T1, human IL-36R overexpressed on …; experiment: cell-based or functional assay; remark: listed apart in the source
[3] = molecular target: T2, Human IL-1Rrp2/IL-1R6 protein, His Tag (ACROBiosystems, IL2-H52H6) (human, UniProt Q9HB29 20-335); experiment: BLI (ForteBio Octet), antibody on ProA sensor, 1:1 model
T2 construct: Bought protein; the soluble protein is likely only the extracellular part; also called hIL-36R; human IL36R antigen; not shown: His tag
T2 sequence: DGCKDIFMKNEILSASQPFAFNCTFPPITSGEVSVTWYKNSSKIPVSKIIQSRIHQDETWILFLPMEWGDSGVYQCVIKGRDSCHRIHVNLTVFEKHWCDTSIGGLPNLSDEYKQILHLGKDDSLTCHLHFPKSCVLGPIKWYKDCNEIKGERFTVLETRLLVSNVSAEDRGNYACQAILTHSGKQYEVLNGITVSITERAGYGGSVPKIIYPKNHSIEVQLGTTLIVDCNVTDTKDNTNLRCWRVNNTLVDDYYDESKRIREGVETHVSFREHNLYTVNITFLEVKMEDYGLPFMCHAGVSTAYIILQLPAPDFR
Protocol: The affinity of anti-IL-36R antibodies to CynoIL36R-ECD mFc and human IL-1Rrp2/IL-IR6 protein, His Tag (ACROBiosystems, IL2-H52H6) was measured by a ForteBio molecular interaction instrument. […] And then the biosensor was used to bind CynoIL36R-ECD mFc or human IL-1Rrp2/IL-1R6 protein, His Tag which was diluted by a gradient (the initial concentration was 200 nM, 2-fold gradient dilution), the response signals were detected in real time using a Fortebio molecular interaction instrument (SARTORIUS, octet red 96e), and association and dissociation curves were obtained. After the completion of dissociation in each cycle, the biosensor was regenerated for the next capture; the procedure was repeated until the affinity of the different anti-IL-36R antibodies for IL-36R was determined. The resulting data were analyzed by Fortebio Data Analysis 11.0 software in a 1:1 (Langmuir) binding model to determine kₐ (kₒₙ) and kd (koff) values, and the dissociation constant KD was calculated by KD=kd/kₐ. The detection method essentially followed the manufacturer's recommendations, and more information could be found at www.fortebio.com.

[4] = molecular target: T3, IL-36R naturally expressed on OVCAR8 cells and on normal human epidermal keratinocytes (NHK cells) (human, UniProt Q9HB29 20-575); experiment: cell-based or functional assay
T3 sequence (looked up): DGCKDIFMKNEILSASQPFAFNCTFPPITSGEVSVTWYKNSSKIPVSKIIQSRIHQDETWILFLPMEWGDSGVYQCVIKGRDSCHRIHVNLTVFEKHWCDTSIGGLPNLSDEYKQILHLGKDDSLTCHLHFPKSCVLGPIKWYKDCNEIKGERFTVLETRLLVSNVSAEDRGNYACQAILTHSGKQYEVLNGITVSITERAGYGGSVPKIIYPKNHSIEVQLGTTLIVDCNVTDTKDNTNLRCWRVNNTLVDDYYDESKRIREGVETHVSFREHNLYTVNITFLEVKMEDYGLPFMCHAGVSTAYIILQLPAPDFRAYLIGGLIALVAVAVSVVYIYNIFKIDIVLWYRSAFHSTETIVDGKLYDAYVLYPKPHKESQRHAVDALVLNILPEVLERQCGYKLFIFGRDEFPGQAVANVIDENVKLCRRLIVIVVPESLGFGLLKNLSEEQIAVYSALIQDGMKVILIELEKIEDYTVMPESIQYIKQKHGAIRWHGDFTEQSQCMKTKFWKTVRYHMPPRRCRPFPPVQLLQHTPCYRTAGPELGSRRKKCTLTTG

[5] = molecular target: T3, IL-36R naturally expressed on OVCAR8 …; experiment: cell-based or functional assay; remark: listed apart in the source
[6] = molecular target: T1, human IL-36R overexpressed on …; experiment: FACS on 293T-hIL36R-NFκB cells, ratio of MFI to background MFI
Protocol: After the cells was washed with PBS, the cells were resuspended with 100 μL of PBS and then the fluorescence signal was detected using a flow cytometer (BD, Accuri C6). […] The ratio was the ratio of mean fluorescence intensity (MFI) of the experimental group/the background MFI, and the resulting data were analyzed using GraphPad Prism.

[7] = molecular target: T1, human IL-36R overexpressed on …; experiment: cell-based or functional assay; remark: listed apart in the source
[8] = molecular target: T3, IL-36R naturally expressed on OVCAR8 …; experiment: cell-based or functional assay; remark: listed apart in the source

B1: chimeric 74B4D6 antibody (antibody, human IgG4 S228P, kappa, V domains shown)
VH: EVQLQQPGAELGKPGASVKMACKASGYTFTNYWIHWVKQRPGQGLEWIGTIDPSENYTNYNQKFKGKATLTVDTSSSTAYMQLSSLTSEDKAVYFCTGSSFSYWGQGTLVTVSA
VL: QNVLTQSPAIMSVSPGEKVTMTCSASSSVSFIHWFQQKPGTSPKLWIYTTSNLASGVPARFSGSGSGTSYSLTISRMEAEDAATYYCQQRSSYPLTFGAGTKLELKR
notes: Mouse variable regions on human IgG4 / kappa; also called xi74B4D6
For B1, the “IC50; NFκB-luciferase reporter in 293T-hIL36R-NFκB cells stimulated with hIL36γ, inhibition rate %” value [1] was 25.4 nM, the “IC50; NFκB-luciferase reporter in 293T-hIL36R-NFκB cells stimulated with hIL36β, inhibition rate %” value [2] was 21.5 nM and the Kd [3] was 4.72 nM. For the same binder, the koff [3] was 0.000332 s⁻¹, the kon [3] was 70400 M⁻¹ s⁻¹ and the “IC50; IL-8 production of OVCAR8 cells stimulated with hIL36α, inhibition rate %” value [4] was 0.73 nM. For the same binder, the “IC50; IL-8 production of OVCAR8 cells stimulated with hIL36γ, inhibition rate %” value [5] was 1.05 nM, the EC50 [6] was 15.5 nM and the “IC50; NFκB-luciferase reporter in 293T-hIL36R-NFκB cells stimulated with hIL36α, inhibition rate %” value [7] was 12.9 nM. The “IC50; IL-8 production of OVCAR8 cells stimulated with hIL36β, inhibition rate %” value [8] was 0.972 nM.
